Assay results as given in US5916561.

Experiments:
[1] = biological target: soluble CD44 variants containing exon v6 in normal human serum (human) (UniProt P16070); assay: sandwich ELISA, coating antibody, serum 1 diluted 1:5, detection BU-52-peroxidase
[2] = biological target: soluble CD44 variants containing exon v6 in normal human serum (human) (UniProt P16070); assay: sandwich ELISA, coating antibody, serum 2 diluted 1:5, detection BU-52-peroxidase
[3] = biological target: soluble CD44 variants containing exon v6 in normal human serum (human) (UniProt P16070); assay: sandwich ELISA, coating antibody, serum 1 diluted 1:10, detection BU-52-peroxidase
[4] = biological target: soluble CD44 variants containing exon v6 in normal human serum (human) (UniProt P16070); assay: sandwich ELISA, coating antibody, serum 1 diluted 1:20, detection BU-52-peroxidase
[5] = biological target: soluble CD44 variants containing exon v6 in normal human serum (human) (UniProt P16070); assay: sandwich ELISA, coating antibody, serum 1 diluted 1:40, detection BU-52-peroxidase
[6] = biological target: soluble CD44 variants containing exon v6 in normal human serum (human) (UniProt P16070); assay: sandwich ELISA, coating antibody, serum 1 diluted 1:80, detection BU-52-peroxidase
[7] = biological target: soluble CD44 variants containing exon v6 in normal human serum (human) (UniProt P16070); assay: sandwich ELISA, coating antibody, serum 2 diluted 1:10, detection BU-52-peroxidase
[8] = biological target: soluble CD44 variants containing exon v6 in normal human serum (human) (UniProt P16070); assay: sandwich ELISA, coating antibody, serum 2 diluted 1:20, detection BU-52-peroxidase
[9] = biological target: soluble CD44 variants containing exon v6 in normal human serum (human) (UniProt P16070); assay: sandwich ELISA, coating antibody, serum 2 diluted 1:40, detection BU-52-peroxidase
[10] = biological target: soluble CD44 variants containing exon v6 in normal human serum (human) (UniProt P16070); assay: sandwich ELISA, coating antibody, serum 2 diluted 1:80, detection BU-52-peroxidase
[11] = biological target: soluble CD44 variants containing exon v6 in normal human serum (human) (UniProt P16070); assay: sandwich ELISA, coating antibody, serum 1 diluted 1:160, detection BU-52-peroxidase
[12] = biological target: soluble CD44 variants containing exon v6 in normal human serum (human) (UniProt P16070); assay: sandwich ELISA, coating antibody, serum 1 diluted 1:320, detection BU-52-peroxidase
[13] = biological target: soluble CD44 variants containing exon v6 in normal human serum (human) (UniProt P16070); assay: sandwich ELISA, coating antibody, serum 1 diluted 1:640, detection BU-52-peroxidase
[14] = biological target: soluble CD44 variants containing exon v6 in normal human serum (human) (UniProt P16070); assay: sandwich ELISA, coating antibody, serum 2 diluted 1:160, detection BU-52-peroxidase
[15] = biological target: soluble CD44 variants containing exon v6 in normal human serum (human) (UniProt P16070); assay: sandwich ELISA, coating antibody, serum 2 diluted 1:320, detection BU-52-peroxidase
[16] = biological target: soluble CD44 variants containing exon v6 in normal human serum (human) (UniProt P16070); assay: sandwich ELISA, coating antibody, serum 2 diluted 1:640, detection BU-52-peroxidase
[17] = biological target: CD44 (variant isoforms not specified) on A431 cells (human) (UniProt P16070); assay: 3H-labelled antibody on ethanol-fixed A431 cells
[18] = biological target: CD44 (variant isoforms not specified) on CX-1 cells (human) (UniProt P16070); assay: 3H-labelled antibody on ethanol-fixed CX-1 cells
[19] = biological target: CD44 (variant isoforms not specified) on CaCo cells (human) (UniProt P16070); assay: 3H-labelled antibody on ethanol-fixed CaCo cells
[20] = biological target: CD44 (variant isoforms not specified) on HT-29 cells (human) (UniProt P16070); assay: 3H-labelled antibody on ethanol-fixed HT-29 cells
[21] = biological target: CD44 (variant isoforms not specified) on HCT-116 cells (human) (UniProt P16070); assay: 3H-labelled antibody on ethanol-fixed HCT-116 cells
[22] = biological target: CD44 (variant isoforms not specified) on COLO 205 cells (human) (UniProt P16070); assay: 3H-labelled antibody on ethanol-fixed COLO 205 cells
[23] = biological target: human variant CD44 (exons v3-v10) on the cell surface of CHO-CD44var cells (human) (UniProt P16070); assay: 3H-labelled antibody on ethanol-fixed CHO CD44var cells
[24] = biological target: soluble CD44 variants containing exon v6 in normal human serum (human) (UniProt P16070); assay: sandwich ELISA, serum of donor 1, calibrated on recombinant soluble CD44v3-v10; reference VFF-7
[25] = biological target: soluble CD44 variants containing exon v6 in normal human serum (human) (UniProt P16070); assay: sandwich ELISA, serum of donor 2, calibrated on recombinant soluble CD44v3-v10; reference VFF-7
[26] = biological target: soluble CD44 variants containing exon v6 in normal human serum (human) (UniProt P16070); assay: sandwich ELISA, serum of donor 3, calibrated on recombinant soluble CD44v3-v10; reference VFF-7
[27] = biological target: soluble CD44 variants containing exon v6 in normal human serum (human) (UniProt P16070); assay: sandwich ELISA, serum of donor 4, calibrated on recombinant soluble CD44v3-v10; reference VFF-7
[28] = biological target: soluble CD44 variants containing exon v6 in normal human serum (human) (UniProt P16070); assay: sandwich ELISA, serum of donor 5, calibrated on recombinant soluble CD44v3-v10; reference VFF-7
[29] = biological target: soluble CD44 variants containing exon v6 in normal human serum (human) (UniProt P16070); assay: sandwich ELISA, serum of donor 6, calibrated on recombinant soluble CD44v3-v10; reference VFF-7
[30] = biological target: soluble CD44 variants containing exon v6 in normal human serum (human) (UniProt P16070); assay: sandwich ELISA, sera of 6 healthy donors, calibrated on recombinant soluble CD44v3-v10; reference VFF-7

absorption (sandwich ELISA signal) (absorption at 450 nm) [1]	absorption (sandwich ELISA signal) (absorption at 450 nm) [2]	absorption (sandwich ELISA signal) (absorption at 450 nm) [3]	absorption (sandwich ELISA signal) (absorption at 450 nm) [4]	absorption (sandwich ELISA signal) (absorption at 450 nm) [5]	absorption (sandwich ELISA signal) (absorption at 450 nm) [6]	absorption (sandwich ELISA signal) (absorption at 450 nm) [7]	absorption (sandwich ELISA signal) (absorption at 450 nm) [8]	absorption (sandwich ELISA signal) (absorption at 450 nm) [9]	absorption (sandwich ELISA signal) (absorption at 450 nm) [10]	absorption (sandwich ELISA signal) (absorption at 450 nm) [11]	absorption (sandwich ELISA signal) (absorption at 450 nm) [12]	absorption (sandwich ELISA signal) (absorption at 450 nm) [13]	absorption (sandwich ELISA signal) (absorption at 450 nm) [14]	absorption (sandwich ELISA signal) (absorption at 450 nm) [15]	absorption (sandwich ELISA signal) (absorption at 450 nm) [16]	specific binding (bound antibody per 400 000 cells) [17] [fmol]	specific binding (bound antibody per 400 000 cells) [18] [fmol]	specific binding (bound antibody per 400 000 cells) [19] [fmol]	specific binding (bound antibody per 400 000 cells) [20] [fmol]	Substance	other results
0.406	1.69	0.378	0.296	0.207	0.109	1.76	1.56	1.21	0.699	0.05	0.026	0.012	0.336	0.138	0.054	–	–	–	–	antibody VFF-4	–
3.14	3.29	3.06	2.63	1.78	1.08	3.32	3.16	3.05	2.54	0.594	0.318	0.159	1.67	0.988	0.546	38.7	9.48	12.6	26.1	antibody VFF-18	specific binding (bound antibody per 400 000 cells) [21]: 20.2 fmol; specific binding (bound antibody per 400 000 cells) [22]: 2.88 fmol; specific binding (bound antibody per 400 000 cells) [23]: 46.5 fmol; VFF-18/VFF-7 (ratio of the serum levels read by the two ELISAs) [24]: 4.17; VFF-18/VFF-7 (ratio of the serum levels read by the two ELISAs) [25]: 2.66; VFF-18/VFF-7 (ratio of the serum levels read by the two ELISAs) [26]: 3.91; VFF-18/VFF-7 (ratio of the serum levels read by the two ELISAs) [27]: 3.31; VFF-18/VFF-7 (ratio of the serum levels read by the two ELISAs) [28]: 3.67; VFF-18/VFF-7 (ratio of the serum levels read by the two ELISAs) [29]: 3.48; VFF-18/VFF-7 (mean value of the ratio over 6 donors) [30]: 3.53
0.417	1.28	0.289	0.179	0.072	0.062	1.19	0.857	0.468	0.208	0.03	0.008	0.007	0.061	0.014	0.018	8.19	0.19	0.03	0	antibody VFF-7	specific binding (bound antibody per 400 000 cells) [21]: 1.44 fmol; specific binding (bound antibody per 400 000 cells) [22]: 0 fmol; specific binding (bound antibody per 400 000 cells) [23]: 33.5 fmol
